Residue numbers refer to the chain shown, from its start. Names may count otherwise.

Data set [1] concerns the target T1, his6-SonA (Shewanella oneidensis), expressed alone as substrate for kinetics.
T1 chain: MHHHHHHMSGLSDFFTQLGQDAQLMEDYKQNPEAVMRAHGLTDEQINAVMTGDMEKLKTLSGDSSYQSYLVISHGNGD

Data set [2] concerns the target T2, his6-SonA, split borosin precursor SonA (Shewanella oneidensis) with N-terminal hexa-histidine tag, … (Shewanella oneidensis, alpha-N-methylations on L63 and I65 (the vast majority purified in the 2-alpha-N-methylated state)).
T2 construct: This complex was used for crystallisation; also called WP_011071666
T2 chain: T1 chain
The experiment in a line: co-purification of untagged SonM with his6-SonA by nickel affinity and size exclusion chromatography, SDS-PAGE. (In gel filtration, larger molecules generally elute earlier.)

Data set [3] concerns the target T3, his6-SonA, split borosin precursor SonA (Shewanella oneidensis) with N-terminal hexa-histidine tag, co-expressed with SonM.
T3 chain: T1 chain

B1: his6-SonM wild type (Shewanella oneidensis), expressed alone for kinetics (protein)
chain: MHHHHHHSSMGSLVCVGTGLQLAGQISVLSRSYIEHADIVFSLLPDGFSQRWLTKLNPNVINLQQFYAQNGEVKNRRDTYEQMVNAILDAVRAGKKTVCALYGHPGVFACVSHMAITRAKAEGFSAKMEPGISAEACLWADLGIDPGNSGHQSFEASQFMFFNHVPDPTTHLLLWQIAIAGEHTLTQFHTSSDRLQILVEQLNQWYPLDHEVVIYEAANLPIQAPRIERLPLANLPQAHLMPISTLLIPPAKKLEYNYAILAKLGIGPEDLG
As for B1, in data set [1], the “substrate turnover (coupled-enzyme Michaelis-Menten kinetics)” value (“substrate turnover” for short) is “SonM wild type (WT) and several active-site mutants reveal multiple SonA substrate turnover”.

B2: SonM mutant Y93F (protein)
chain: B1 chain with Y102F
B2: the “substrate turnover” value in data set [1] is “SonM wild type (WT) and several active-site mutants reveal multiple SonA substrate turnover”.

B3: SonM mutant R67K (protein)
chain: B1 chain with R76K
With B3, the “substrate turnover” value in data set [1] was “SonM wild type (WT) and several active-site mutants reveal multiple SonA substrate turnover”.

B4: SonM mutant Y58F (protein)
chain: B1 chain with Y67F
Take B4: the “substrate turnover” value in data set [1] was “SonM wild type (WT) and several active-site mutants reveal multiple SonA substrate turnover”.

B5: SonM mutant Y71F (protein)
chain: B1 chain with Y80F
Regarding B5, in data set [1], the “substrate turnover” value was “SonM wild type (WT) and several active-site mutants reveal multiple SonA substrate turnover”.

B6: split borosin alpha-N-methyltransferase SonM (Shewanella oneidensis), untagged, co-expressed with his6-SonA (enzyme)
chain: MGSLVCVGTGLQLAGQISVLSRSYIEHADIVFSLLPDGFSQRWLTKLNPNVINLQQFYAQNGEVKNRRDTYEQMVNAILDAVRAGKKTVCALYGHPGVFACVSHMAITRAKAEGFSAKMEPGISAEACLWADLGIDPGNSGHQSFEASQFMFFNHVPDPTTHLLLWQIAIAGEHTLTQFHTSSDRLQILVEQLNQWYPLDHEVVIYEAANLPIQAPRIERLPLANLPQAHLMPISTLLIPPAKKLEYNYAILAKLGIGPEDLG
notes: also called WP_011071665
Take B6: in data set [2], the binding result is reported as “binds”. Further, in data set [3], the “MS1 alpha-N-methylation profile of SonA co-purified with SonM” value is reported as “the vast majority of SonA is purified as the 2-alpha-N-methylated state”.

These data come from patent US20230090771A1 (REGENTS OF THE UNIVERSITY OF MINNESOTA, published 2023).
